Test results: US20260242497A1
pKd: −log10 of the molar value.

Legend:
[1] = target: human FcRn (human) (UniProt P55899); experiment: SPR, Biacore 8K, CM5 chip, antibody immobilised, human FcRn as analyte, pH 6.0; average of multiple experiments
[2] = target: human FcRn (human) (UniProt P55899); experiment: SPR, Biacore 8K, CM5 chip, antibody immobilised, human FcRn as analyte, pH 6.0

pKd [1]	Fold Increase (FI) relative to Rituximab [2] [fold]	pKd [2]	Substance
5.67			Rituximab (antibody)
	10.5	6.69	APG-777 (Apogee) (antibody)
	1.1	5.71	CALY-002 (Calypso/Novartis) (antibody)
		5.66	AVTX-009 (Avalo) (antibody)
